Reference: paper PMC7613929 (Nature microbiology, 2022)

B1: E. coli FtsN cytoplasmic tail peptide, residues 1-32 (EcFtsN^1-32) [E. coli] / E. coli FtsA (EcFtsA), full length [E. coli] (parent complex)
chain 1: MAQRDYVRRSQPAPSRRKKSTSRKKQRNLPAV
chain 2: MIKATDRKLVVGLEIGTAKVAALVGEVLPDGMVNIIGVGSCPSRGMDKGGVNDLESVVKCVQRAIDQAELMADCQISSVYLALSGKHISCQNEIGMVPISEEEVTQEDVENVVHTAKSVRVRDEHRVLHVIPQEYAIDYQEGIKNPVGLSGVRMQAKVHLITCHNDMAKNIVKAVERCGLKVDQLIFAGLASSYSVLTEDERELGVCVVDIGGGTMDIAVYTGGALRHTKVIPYAGNVVTSDIAYAFGTPPSDAEAIKVRHGCALGSIVGKDESVEVPSVGGRPPRSLQRQTLAEVIEPRYTELLNLVNEEILQLQEKLRQQGVKHHLAAGIVLTGGAAQIEGLAACAQRVFHTQVRIGAPLNITGLTDYAQEPYYSTAVGLLHYGKESHLNGEAEVEKRVTASVGSWIKRLNSWLRKEF

Variants of: B1
Experiment: SPR; FtsA immobilised on CM5 chip via amide coupling; peptide 1:2 dilution series from 20 μM; maximum response fixed during fitting (asterisk)
In the case of chain 1 MAQRDYVRRSQPAPSRRKKSTSASAQRNLPAV [chain 1 R23A, chain 1 K24S, chain 1 K25A], the Kd is reported as about 80.6 µM.
With chain 1 MAQRDYVRRSQPAPSAASASTSRKKQRNLPAV [chain 1 R16A, chain 1 R17A, chain 1 K18S, chain 1 K19A] the Kd was about 166 µM.
